Data from patent CN107011436A.
“And” between values parts separate entries of the source, which are not always exact repeats. Equal values may be shown once. Read-outs that look alike come from different tables or passages of the source.

Experiments:
纯化的H7N9病毒HA蛋白 (H7N9病毒) [1] = experiment: ELISA, HA-coated plate, expression supernatant diluted 1:40, anti-human Fc-HRP
纯化的H7N9病毒HA蛋白 (H7N9病毒) [2] = experiment: ELISA, HA-coated plate, expression supernatant diluted 1:320, anti-human Fc-HRP
[3] = target: H7N9病毒Wuxi-02病毒株的HA蛋白 (H7N9病毒); experiment: cell-based or functional assay
[4] = target: H7N9病毒Wuxi-01病毒株的HA蛋白 (H7N9病毒); experiment: cell-based or functional assay
[5] = target: H7N9病毒Nanjing-06病毒株的HA蛋白 (H7N9病毒); experiment: cell-based or functional assay
[6] = target: H7N9病毒Suzhou-03病毒株的HA蛋白 (H7N9病毒); experiment: cell-based or functional assay
纯化的H7N9病毒HA蛋白 (H7N9病毒) [7] = experiment: ELISA, HA-coated plate, expression supernatant diluted 1:80, anti-human Fc-HRP
纯化的H7N9病毒HA蛋白 (H7N9病毒) [8] = experiment: ELISA, HA-coated plate, expression supernatant diluted 1:640, anti-human Fc-HRP
纯化的H7N9病毒HA蛋白 (H7N9病毒) [9] = experiment: ELISA, HA-coated plate, expression supernatant diluted 1:160, anti-human Fc-HRP
纯化的H7N9病毒HA蛋白 (H7N9病毒) [10] = experiment: ELISA, HA-coated plate, expression supernatant diluted 1:20, anti-human Fc-HRP
纯化的H7N9病毒HA蛋白 (H7N9病毒) [11] = target: 纯化的H7N9病毒HA蛋白 (H7N9病毒)

B1: 抗H7N9病毒的单克隆抗体mAb6137 (antibody, V domains shown)
VH: EVQLVESGGGLVQPGRSLRLSCAASGFIFDDYAMHWVRQAPGKGLEWVSGISWNNNNRAYADSVKGRFTISRDSAKNSLYLQMNSLRAEDTALYYCAKDILSLNMVRGGDEYYGIDVWGQGTTVTVSS
VL: DIQLTQSPSSLSASVGDRVTITCQASQDINNYLNWYQQKPGKAPKLLIFDASNLETGVPSRFSGSGSGTDFTFTISSLQPEDIATYYCQQYGSLLTFGGGTKVDIKR
For B1, the OD450 (纯化的H7N9病毒HA蛋白 (H7N9病毒) [1]) was 1.91 OD450, the OD450 (纯化的H7N9病毒HA蛋白 (H7N9病毒) [2]) was 0.584 OD450 and the 中和100×TCID50病毒需要的抗体质量 [3] was 80 ng. It also gave a 中和100×TCID50病毒需要的抗体质量 [4] of 40 ng, a 中和100×TCID50病毒需要的抗体质量 [5] of 20 ng and a 中和100×TCID50病毒需要的抗体质量 [6] of 40 ng. It also gave an OD450 (纯化的H7N9病毒HA蛋白 (H7N9病毒) [7]) of 1.37 OD450, an OD450 (纯化的H7N9病毒HA蛋白 (H7N9病毒) [8]) of 0.35 OD450 and an OD450 (纯化的H7N9病毒HA蛋白 (H7N9病毒) [9]) of 0.971 OD450. The OD450 (纯化的H7N9病毒HA蛋白 (H7N9病毒) [10]) was 2.06 OD450 and the OD450 (纯化的H7N9病毒HA蛋白 (H7N9病毒) [11]) was 0.211 OD450 and 0.153 OD450.
